{"source": "paper PMC12136450", "about": "(PLOS Biology, 2025)", "binders": {"B1": {"name": "ATPase domain of ParE, strep-tagged (domain or fragment)", "chain": "MTQTYNADAIEVLTGLEPVRRRPGMYTDTTRPNHLGQEVIDNSVDEALAGHAKRVDVILHADQSLEVIDDGRGMPVDIHPEEGVPAVELILCRLHAGGKFSNKNYQFSGGLHGVGISVVNALSKRVEVNVRRDGQVYNIAFENGEKVQDLQVVGTCGKRNTGTSVHFWPDETFFDSPRFSVSRLTHVLKAKAVLCPGVEITFKDEINNTEQRWCYQDGLNDYLAEAVNGLPTLPEKPFIGNFAGDTEAVDWALLWLPEGGELLTESYVNLIPTMQGGTHVNGLRQGLLDAMREFCEYRNILPRGVKLSAEDIWDRCAYVLSVKMQDPQFAGQTKERLSSRQCAAFVSGVVKDAFILWLNQNVQAAELLAEMAISSAQRRMRAAKKVVRKK", "modifications": "C-terminal strep tag left out. Limits are not given; 1-390 is taken from the 43-kDa ATPase domain in PDB 1S16 (390 aa), which the paper uses for ParE. The K-12 strain is inferred."}, "B2": {"name": "strep-tagged Cpi1 (wild type) (natural protein)", "chain": "MGIVFTNHNIDLLSVEFDEITKNCNYTFSVDGETAIFTARISIIRNIKGIKYSEELDKFIMSIMPLQPKVSKILGGVTWDCICGKEVGFPVRLIGK", "notes": "source: E. coli BL21 (DE3), pETDuet-1, purified (streptavidin resin, gel filtration)"}, "B3": {"name": "His-tagged Cpe1tox^C362A (catalytically inactive toxin domain) (domain or fragment)", "chain": "AGGNWTVFDEVLDSNVIKQLTLTGAGAACGEMLLRDRYIFVTQNVIGTELTSMTSLANKLNKFDVGWEGNAVSESSLYALSNTGSWGAMMWDSGSKVGHWVLVKGVDDAGNVIIYDPYQGSRYLMTEQEFKEVWNGHSVYKP"}}, "key": {"[1]": {"target": "T1, His-tagged Cpe1tox^C362A (catalytically inactive toxin domain) (Escherichia coli strain ATCC 11775, UniProt P0DXX9 338-479, C362A)", "T1 sequence": "B3 chain", "experiment": "BLI"}, "[2]": {"target": "T2, His-tagged Cpe1tox^C362A (catalytically inactive toxin domain) (Escherichia coli strain ATCC 11775, UniProt P0DXX9 338-479, C362A)", "T2 construct": "not shown: His6, N-terminal, kept", "T2 sequence": "B3 chain", "experiment": "BLI; […]; 30 °C; PBS with 0.2% BSA, 0.02% Tween-20; association 150 s, dissociation 300 s; 1:1 global fit", "conditions": "both partners purified"}, "[3]": {"target": "ATPase domain of ParE, strep-tagged (E. coli)", "experiment": "BLI; […]; 30 °C; PBS with 0.2% BSA, 0.02% Tween-20; association and dissociation 120 s; […]"}}, "data": [{"binder": "B1", "values": [{"measurement": "koff", "setting": "[1]", "value": 0.47, "unit": "s⁻¹"}]}, {"binder": "B2", "values": [{"measurement": "koff", "setting": "[1]", "value": 0.00303, "unit": "s⁻¹"}, {"measurement": "Kd", "setting": "[2]", "value": 8.58, "unit": "nM"}]}, {"binder": "B3", "values": [{"measurement": "Kd", "setting": "[3]", "value": 343, "unit": "nM"}]}]}
